{"source": "paper PMC10881151", "key": {"[1]": {"biological_target": "Drp1-S579D (phosphomimetic mutant of human DRP1 isoform 3) (human)", "assay": "co-sedimentation"}, "[2]": {"biological_target": "Drp1-S600D (phosphomimetic mutant of human DRP1 isoform 3) (human)", "assay": "co-sedimentation"}}}
{"substance": "MFF-∆TM (truncated human MFF isoform 4) (from UniProt Q9GZY8-4 1-218) (domain or fragment)", "values": [{"measurement": "percent less Drp1 and Mff in the pellets than for Drp1-WT", "setting": "[1]", "result": 50, "unit": "%"}, {"measurement": "percent less Drp1 and Mff in the pellets than for Drp1-WT", "setting": "[2]", "result": 50, "unit": "%"}]}
